In the assay the target is T1, human recombinant TfR1 protein (amino acids 89-760) (human, UniProt P02786 89-760).
T1 construct: range 89-760; Expressed in 293F cells from pcDNA3.4; also called humanized TfR1 protein; humanized recombinant TfR1 protein
Nature of the assay: ELISA of crude extracts on coated TfR1, anti-HA HRP; positive clone = OD at least 5-fold over control. The method, then: Crude antibody extracts were obtained using osmotic lysis. 100 μL of the obtained crude antibody extract was transferred to the TfR1-coated ELISA plate and incubated at room temperature for 1 hour. Unbound antibodies were washed away with PBST buffer with Tween-20 (PBS purchased from Sangon Biotech, Cat. No. B548117-0500; Tween-20 purchased from Beyotime Biotechnology, Cat. No. ST825). 100 μL of 1:2000-diluted mouse anti-HA horseradish peroxidase (HRP)-conjugated antibody (Thermo Fisher) was added and incubated at room temperature for 1 hour. After washing with PBST buffer to remove unbound antibodies, HRP chromogenic solution was added, followed by a 15-minute reaction at 37° C. With the stop solution added, the absorbance was read at 450 nm using a microplate reader (purchased from TECAN).

Where a chain is given by its changes, count along the chain named.

Twelve molecules from patent publication US20260217847A1 (NANJING REGENECORE BIOTECH, published 2026) can be followed below.

T1 sequence (P02786 89-760 limits assumed): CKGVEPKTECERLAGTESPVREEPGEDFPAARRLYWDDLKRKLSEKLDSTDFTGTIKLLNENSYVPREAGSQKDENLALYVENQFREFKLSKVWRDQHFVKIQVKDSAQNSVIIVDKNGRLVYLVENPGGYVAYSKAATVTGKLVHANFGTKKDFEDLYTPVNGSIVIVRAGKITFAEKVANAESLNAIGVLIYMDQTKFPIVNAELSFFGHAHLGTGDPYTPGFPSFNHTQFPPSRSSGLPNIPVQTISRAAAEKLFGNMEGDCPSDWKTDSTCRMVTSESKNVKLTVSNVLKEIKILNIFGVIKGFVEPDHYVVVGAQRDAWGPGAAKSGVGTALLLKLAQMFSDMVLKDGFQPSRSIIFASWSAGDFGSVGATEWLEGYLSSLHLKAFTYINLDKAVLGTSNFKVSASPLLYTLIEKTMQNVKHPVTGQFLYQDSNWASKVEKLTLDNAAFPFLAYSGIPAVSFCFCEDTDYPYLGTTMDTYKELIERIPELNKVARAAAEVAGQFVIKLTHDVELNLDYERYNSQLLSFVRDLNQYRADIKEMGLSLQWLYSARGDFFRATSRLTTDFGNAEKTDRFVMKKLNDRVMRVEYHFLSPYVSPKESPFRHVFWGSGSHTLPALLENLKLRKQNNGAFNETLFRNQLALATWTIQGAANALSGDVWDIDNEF

B1: anti-humanized TfR1 protein single-domain antibody 2H7 (VHH clone, crude extract from pMECS) (VHH, not shown: small tags and cut ends)
VHH: ESGGGLVQPGESLRLSCVASGSIWSIYTMGWYRQAPGKQRDFVASITGDSTRTLESVKDRFIISRDNTKNTLYLQMNSLKPEDTAVYYCQAITSLGEYWGQGTQVTVSS
Consider B1, for which the binding result was “binds”.

B2: anti-humanized TfR1 protein single-domain antibody 4D11 (VHH clone, crude extract from pMECS) (VHH, not shown: small tags and cut ends)
VHH: B1 VHH with G48R, T68A, Q90H
Consider B2, for which the binding result is “binds”.

B3: anti-humanized TfR1 protein single-domain antibody 7G5 (VHH clone, crude extract from pMECS) (VHH, not shown: small tags and cut ends)
VHH: ESGGGSVQPGGSLRLSCAVSGSIFSIDTMAWYRQAPGKQRELVAAITKGGSRNYADSVKGRFTISRDNAKNTVYLQMNSLKPEDTAVYYCLADRLFRDRSWGQGTQVTVSS
For B3, the binding result is listed as “binds”.

B4: anti-humanized TfR1 protein single-domain antibody 5D3 (VHH clone, crude extract from pMECS) (VHH, not shown: small tags and cut ends)
VHH: ESGGGLVEPGGSLRLSCAASGNIFSINNMYWHRQAPGKQRELVGGITRGGITNYVDSVKGRFTISRDNAKNTVYLQMNSLKPEDTAVYFCNAHPWRLGIADYWGQGTQVTVSS
On to B4, for which the binding result is reported as “binds”.

B5: anti-humanized TfR1 protein single-domain antibody 5D1 (VHH clone, crude extract from pMECS) (VHH, not shown: small tags and cut ends)
VHH: ESGGGLVQPGESLRLSCVASGSIWSIYTMGWYRQAPGKQRDFVASITRDGGRRHAESVKDRFTISRDNAKNTLYLQMNSLKPEDTAVYSCLAITSLGEYWGQGTQVTVSS
On to B5, for which the binding result is recorded as “binds”.

B6: anti-humanized TfR1 protein single-domain antibody 7A3 (VHH clone, crude extract from pMECS) (VHH, not shown: small tags and cut ends)
VHH: B5 VHH with G50S, H54Y, M77T, S89Y, L91H
Consider B6, for which the binding result is listed as “binds”.

B7: anti-humanized TfR1 protein single-domain antibody 4C5 (VHH clone, crude extract from pMECS) (VHH, not shown: small tags and cut ends)
VHH: B5 VHH with V18A, K38L, A44G, T47A, D49E, H54Y, L73M, P82R, S89Y, L91N
On to B7, for which the binding result is “binds”.

B8: anti-humanized TfR1 protein single-domain antibody 7D10 (VHH clone, crude extract from pMECS) (VHH, not shown: small tags and cut ends)
VHH: ESGGGLVQPGGSLRLSCATSGGTFEMYAMAWFRQAPGKDREGVAGFSWRDSSTTYYSDSVKGRFTISRDNAKNTVYLQMNSLKPEDTAVYYCAARPYVSRWSESSGYDYWGQGTQVTVSS
With B8, the binding result is listed as “binds”.

B9: anti-humanized TfR1 protein single-domain antibody 7G10 (VHH clone, crude extract from pMECS) (VHH, not shown: small tags and cut ends)
VHH: ESGGGLVQAGASLKLSCNGSGRTFISYAMGWFRQAPGKQREFVAAERWSGSGIYYADSLKGRFTISRDNAKNTVYLEMNNLKPEDTAVYYCAAREGGLLHVATSYDYWGQGTQVTVSS
In the case of B9, the binding result is listed as “binds”.

B10: anti-humanized TfR1 protein single-domain antibody 8E10 (VHH clone, crude extract from pMECS) (VHH, not shown: small tags and cut ends)
VHH: ESGGGLVQAGGSLRLSCAFSGPPFSTYGMGWFRQAPGKEREFVATISGSGFTTTYADSVKGRFTISRDNAKNTVYLQMNSLKPGDTAVYYCAAGVLDGTNWHEYDYWGQGTQVTVSS
For B10, the binding result is on record as “binds”.

B11: anti-humanized TfR1 protein single-domain antibody 8B8 (VHH clone, crude extract from pMECS) (VHH, not shown: small tags and cut ends)
VHH: B10 VHH with A9P, A18V, F19A, P22R, P23T, Y27S, G48W, G98S, N100S
In the case of B11, the binding result is listed as “binds”.

B12: anti-humanized TfR1 protein single-domain antibody 5A3 (VHH clone, crude extract from pMECS) (VHH, not shown: small tags and cut ends)
VHH: ESGGGLVQAGGSLTLSCAVSRRAFNTKAMGWFRQAPGKEREFVATISWSGFSTNYADSVKGRFTISRDNAKNTVYLQMNSLKPGDTAVYYCAAGVLDGTNWHEYDYWGQGTQVTVSS
Take B12: the binding result is “binds”.
